B1: Phosphatidylserine lipase ABHD16A (Homo sapiens), O95870 (parent)
chain: MAKLLSCVLGPRLYKIYRERDSERAPASVPETPTAVTAPHSSSWDTYYQPRALEKHADSILALASVFWSISYYSSPFAFFYLYRKGYLSLSKVVPFSHYAGTLLLLLAGVACLRGIGRWTNPQYRQFITILEATHRNQSSENKRQLANYNFDFRSWPVDFHWEEPSSRKESRGGPSRRGVALLRPEPLHRGTADTLLNRVKKLPCQITSYLVAHTLGRRMLYPGSVYLLQKALMPVLLQGQARLVEECNGRRAKLLACDGNEIDTMFVDRRGTAEPQGQKLVICCEGNAGFYEVGCVSTPLEAGYSVLGWNHPGFAGSTGVPFPQNEANAMDVVVQFAIHRLGFQPQDIIIYAWSIGGFTATWAAMSYPDVSAMILDASFDDLVPLALKVMPDSWRGLVTRTVRQHLNLNNAEQLCRYQGPVLLIRRTKDEIITTTVPEDIMSNRGNDLLLKLLQHRYPRVMAEEGLRVVRQWLEASSQLEEASIYSRWEVEEDWCLSVLRSYQAEHGPDFPWSVGEDMSADGRRQLALFLARKHLHNFEATHCTPLPAQNFQMPWHL
B2: Four and a half LIM domains protein 2 (Homo sapiens), Q14192 (parent)
chain: MTERFDCHHCNESLFGKKYILREESPYCVVCFETLFANTCEECGKPIGCDCKDLSYKDRHWHEACFHCSQCRNSLVDKPFAAKEDQLLCTDCYSNEYSSKCQECKKTIMPGTRKMEYKGSSWHETCFICHRCQQPIGTKSFIPKDNQNFCVPCYEKQHAMQCVQCKKPITTGGVTYREQPWHKECFVCTACRKQLSGQRFTARDDFAYCLNCFCDLYAKKCAGCTNPISGLGGTKYISFEERQWHNDCFNCKKCSLSLVGRGFLTERDDILCPDCGKDI
partner: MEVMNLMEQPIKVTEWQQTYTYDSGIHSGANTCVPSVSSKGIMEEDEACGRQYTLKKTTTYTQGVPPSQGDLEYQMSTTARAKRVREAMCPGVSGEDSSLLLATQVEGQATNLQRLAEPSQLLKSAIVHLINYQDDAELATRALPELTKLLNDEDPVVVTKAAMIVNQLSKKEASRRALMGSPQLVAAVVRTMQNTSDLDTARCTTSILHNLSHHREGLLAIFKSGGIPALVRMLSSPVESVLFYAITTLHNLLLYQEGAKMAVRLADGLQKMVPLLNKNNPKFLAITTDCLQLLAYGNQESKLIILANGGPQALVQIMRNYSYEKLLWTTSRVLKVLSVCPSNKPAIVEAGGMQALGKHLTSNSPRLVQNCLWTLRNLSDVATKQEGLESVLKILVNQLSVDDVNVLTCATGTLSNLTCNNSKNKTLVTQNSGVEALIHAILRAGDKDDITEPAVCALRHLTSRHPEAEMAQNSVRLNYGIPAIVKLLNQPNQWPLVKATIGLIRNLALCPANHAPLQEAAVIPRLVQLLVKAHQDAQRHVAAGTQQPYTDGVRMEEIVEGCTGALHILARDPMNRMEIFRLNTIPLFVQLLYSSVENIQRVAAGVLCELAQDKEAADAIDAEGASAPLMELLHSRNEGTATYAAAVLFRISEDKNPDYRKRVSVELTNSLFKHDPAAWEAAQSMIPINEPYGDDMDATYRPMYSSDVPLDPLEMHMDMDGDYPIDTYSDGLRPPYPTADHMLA
B3: SH2 domain-containing protein 4A (Homo sapiens), Q9H788 (parent)
chain: MLKQILSEMYIDPDLLAELSEEQKQILFFKMREEQIRRWKEREAAMERKESLPVKPRPKKENGKSVHWKLGADKEVWVWVMGEHHLDKPYDVLCNEIIAERARLKAEQEAEEPRKTHSEEFTNSLKTKSQYHDLQAPDNQQTKDIWKKVAEKEELEQGSRPAPTLEEEKIRSLSSSSRNIQQMLADSINRMKAYAFHQKKESMKKKQDEEINQIEEERTKQICKSWKEDSEWQASLRKSKAADEKRRSLAKQAREDYKRLSLGAQKGRGGERLQSPLRVPQKPERPPLPPKPQFLNSGAYPQKPLRNQGVVRTLSSSAQEDIIRWFKEEQLPLRAGYQKTSDTIAPWFHGILTLKKANELLLSTGMPGSFLIRVSERIKGYALSYLSEDGCKHFLIDASADAYSFLGVDQLQHATLADLVEYHKEEPITSLGKELLLYPCGQQDQLPDYLELFE
partner: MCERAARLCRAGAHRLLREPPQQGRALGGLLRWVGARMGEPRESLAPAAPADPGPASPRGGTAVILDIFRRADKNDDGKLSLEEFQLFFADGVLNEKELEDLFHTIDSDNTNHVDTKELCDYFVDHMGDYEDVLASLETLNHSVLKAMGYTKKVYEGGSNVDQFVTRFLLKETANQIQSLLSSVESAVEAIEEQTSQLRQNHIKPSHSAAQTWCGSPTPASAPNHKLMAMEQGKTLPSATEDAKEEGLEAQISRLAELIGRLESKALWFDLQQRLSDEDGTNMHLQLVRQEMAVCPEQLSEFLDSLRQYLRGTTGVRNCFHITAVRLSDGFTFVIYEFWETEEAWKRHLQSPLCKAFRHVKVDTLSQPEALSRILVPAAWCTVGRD
B4: Pyridine nucleotide-disulfide oxidoreductase domain-containing protein 1 (Homo sapiens), Q8WU10 (parent)
chain: MEAARPPPTAGKFVVVGGGIAGVTCAEQLATHFPSEDILLVTASPVIKAVTNFKQISKILEEFDVEEQSSTMLGKRFPNIKVIESGVKQLKSEEHCIVTEDGNQHVYKKLCLCAGAKPKLICEGNPYVLGIRDTDSAQEFQKQLTKAKRIMIIGNGGIALELVYEIEGCEVIWAIKDKAIGNTFFDAGAAEFLTSKLIAEKSEAKIAHKRTRYTTEGRKKEARSKSKADNVGSALGPDWHEGLNLKGTKEFSHKIHLETMCEVKKIYLQDEFRILKKKSFTFPRDHKSVTADTEMWPVYVELTNEKIYGCDFIVSATGVTPNVEPFLHGNSFDLGEDGGLKVDDHMHTSLPDIYAAGDICTTSWQLSPVWQQMRLWTQARQMGWYAAKCMAAASSGDSIDMDFSFELFAHVTKFFNYKVVLLGKYNAQGLGSDHELMLRCTKGREYIKVVMQNGRMMGAVLIGETDLEETFENLILNQMNLSSYGEDLLDPNIDIEDYFD
partner: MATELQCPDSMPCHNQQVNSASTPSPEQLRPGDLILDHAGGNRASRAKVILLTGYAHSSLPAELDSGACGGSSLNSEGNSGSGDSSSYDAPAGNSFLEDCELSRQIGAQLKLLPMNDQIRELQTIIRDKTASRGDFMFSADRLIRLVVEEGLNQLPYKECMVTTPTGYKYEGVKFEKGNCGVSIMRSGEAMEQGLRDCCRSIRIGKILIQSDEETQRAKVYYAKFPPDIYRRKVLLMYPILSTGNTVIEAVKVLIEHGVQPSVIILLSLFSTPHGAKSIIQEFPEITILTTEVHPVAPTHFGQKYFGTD

Variants of: B1
Details: with dtx2_human DTX2, Q86UW9
Sequence of dtx2_human DTX2, Q86UW9 (Q86UW9 whole entry): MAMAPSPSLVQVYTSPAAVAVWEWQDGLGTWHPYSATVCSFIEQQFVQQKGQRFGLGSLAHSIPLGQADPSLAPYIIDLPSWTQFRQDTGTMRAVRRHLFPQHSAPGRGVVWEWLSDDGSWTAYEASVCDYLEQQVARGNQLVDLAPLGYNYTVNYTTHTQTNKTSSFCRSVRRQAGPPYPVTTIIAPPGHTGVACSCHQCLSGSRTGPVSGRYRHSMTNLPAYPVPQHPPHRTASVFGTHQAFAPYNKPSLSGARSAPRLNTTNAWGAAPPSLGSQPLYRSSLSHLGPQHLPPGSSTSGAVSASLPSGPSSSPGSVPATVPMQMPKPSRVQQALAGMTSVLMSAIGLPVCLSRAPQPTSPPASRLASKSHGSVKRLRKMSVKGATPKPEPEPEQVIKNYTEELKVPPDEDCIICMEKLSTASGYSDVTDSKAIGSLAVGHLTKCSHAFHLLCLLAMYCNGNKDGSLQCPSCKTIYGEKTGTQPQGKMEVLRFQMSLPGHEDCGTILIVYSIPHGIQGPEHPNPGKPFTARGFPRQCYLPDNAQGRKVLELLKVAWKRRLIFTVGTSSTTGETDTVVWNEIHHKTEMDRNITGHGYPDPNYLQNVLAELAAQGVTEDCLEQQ

effect of a mutation on the interaction	Variant
with no effect	MAKLLSCVLGPRLYKIYRERDSERAPASVPETPTAVTAPHSSSWDTYYQPRALEKHADSILALASVFWSISYYSSPFAFFYLYRKGYLSLSKVVPFSHYAGTLLLLLAGVACLRGIGRWTNPQYRQFITILEATHRNQSSENKRQLANYNFDFRSWPVDFHWEEPSSRKESRGGPSRRGVALLLPEPLHRGTADTLLNRVKKLPCQITSYLVAHTLGRRMLYPGSVYLLQKALMPVLLQGQARLVEECNGRRAKLLACDGNEIDTMFVDRRGTAEPQGQKLVICCEGNAGFYEVGCVSTPLEAGYSVLGWNHPGFAGSTGVPFPQNEANAMDVVVQFAIHRLGFQPQDIIIYAWSIGGFTATWAAMSYPDVSAMILDASFDDLVPLALKVMPDSWRGLVTRTVRQHLNLNNAEQLCRYQGPVLLIRRTKDEIITTTVPEDIMSNRGNDLLLKLLQHRYPRVMAEEGLRVVRQWLEASSQLEEASIYSRWEVEEDWCLSVLRSYQAEHGPDFPWSVGEDMSADGRRQLALFLARKHLHNFEATHCTPLPAQNFQMPWHL [R184L]

Variants of: B2
Details: with plak_human JUP

effect of a mutation on the interaction	Variant
disrupting interaction strength	MTERFDCHHCNESLFGKKYILREESPYCVVCFETLFANTCEECGKPIGCDCKDLSYKDRHWHEACFHCSQCRNSLVDKPFAAKEDQLLCTDCYSKEYSSKCQECKKTIMPGTRKMEYKGSSWHETCFICHRCQQPIGTKSFIPKDNQNFCVPCYEKQHAMQCVQCKKPITTGGVTYREQPWHKECFVCTACRKQLSGQRFTARDDFAYCLNCFCDLYAKKCAGCTNPISGLGGTKYISFEERQWHNDCFNCKKCSLSLVGRGFLTERDDILCPDCGKDI [N95K]

Variants of: B3
Details: with neca2_human NECAB2, Q7Z6G3

effect of a mutation on the interaction	Variant
with no effect	MLKQILSEMYIDPDLLAELSEEQKQILFFKMREEQIRRWKEREAAMERKESLPVKPRPKKENGKSVHWKLGADKEVWVWVMGEHHLDKPYDVLCNEIIAERARLKAEQEAEEPRKTHSEEFTNSLKTKSQYHDLQAPDNQQTKDIWKKVAEKEELEQGSRPAPTLEEEKIRSLSSSSRNIQQMLADSINRMKAYAFHQKKESMKKKQDEEINQIEEERTKQICKSWKEDSEWQASLRKSKAADEKRRSLAKQAREDYKRLSLGAQKGRGGERLQSPLRVPQKPERPPLPPKPQFLNSGAYPQRPLRNQGVVRTLSSSAQEDIIRWFKEEQLPLRAGYQKTSDTIAPWFHGILTLKKANELLLSTGMPGSFLIRVSERIKGYALSYLSEDGCKHFLIDASADAYSFLGVDQLQHATLADLVEYHKEEPITSLGKELLLYPCGQQDQLPDYLELFE [K303R]
with no effect	MLKQILSEMYIDPDLLAELSEEQKQILFFKMREEQIRRWKEREAAMERKESLPVKPRPKKENGKSVHWKLGADKEVWVWVMGEHHLDKPYDVLCNEIIAERARLKAEQEAEEPRKTHSEEFTNSLKTKSQYHDLQAPDNQQTKDIWKKVAEKEELEQGSRPAPTLEEEKIRSLSSSSRNIQQMLADSINRMKAYAFHQKKESMKKKQDEEINQIEEERTKQICKSWKEDSEWQASLRKSKAADEKRRSLAKQAREDYKRLSLAAQKGRGGERLQSPLRVPQKPERPPLPPKPQFLNSGAYPQKPLRNQGVVRTLSSSAQEDIIRWFKEEQLPLRAGYQKTSDTIAPWFHGILTLKKANELLLSTGMPGSFLIRVSERIKGYALSYLSEDGCKHFLIDASADAYSFLGVDQLQHATLADLVEYHKEEPITSLGKELLLYPCGQQDQLPDYLELFE [G263A]
with no effect	MLKQILSEMYIDPDLLAELSEEQKQILFFKMREEQIRRWKEREAAMERKESLPVKPRPKKENGKSVHWKLGADKEVWVWVMGEHHLDKPYDVLCNEIIAERARLKAEQEAEEPRKTHSEEFTNSLKTKSQYHDLQAPDNQQTKDIWKKVAEKEELEQGSRPAPTLEEEKIRSLSSSSRNIQQMLADSINRMKAYAFHQKKESMKKKQDEEINQIEGERTKQICKSWKEDSEWQASLRKSKAADEKRRSLAKQAREDYKRLSLGAQKGRGGERLQSPLRVPQKPERPPLPPKPQFLNSGAYPQKPLRNQGVVRTLSSSAQEDIIRWFKEEQLPLRAGYQKTSDTIAPWFHGILTLKKANELLLSTGMPGSFLIRVSERIKGYALSYLSEDGCKHFLIDASADAYSFLGVDQLQHATLADLVEYHKEEPITSLGKELLLYPCGQQDQLPDYLELFE [E216G]

Variants of: B4
Details: with upp_human UPRT

effect of a mutation on the interaction	Variant
with no effect	MEAARPPPTAGKFVVVGGGIAGVTCAEQLATHFPSEDILLVTASPVIKAVTNFKQISKILEEFDVEEQSSTMLGKRFPNIKVIESGVKQLKSEEHCIVTEDGNQHVYKKLCLCAGAKPKLICEGNPYVLGIRDTDSAQEFQKQLTKAKRIMIIGNGGIALELVYEIEGCEVIWAIKDKAIGNTFFDAGAAEFLTSKLIAEKSEAKIAHKRTRYTTEGRKKEARSKSKADNVGSALGPDWHEGLNLKGTKEFSHKIHLETMCEVKKIYLQDEFRILKKKSFTFPRDHKSVTADTEMWPVYVELTNEKIYGCDFIVSATGVTPNVEPFLHGNSFDLGEDGGLKVDDHMHTSLPDIYAAGDICTTSWQLSPVWQQMKLWTQARQMGWYAAKCMAAASSGDSIDMDFSFELFAHVTKFFNYKVVLLGKYNAQGLGSDHELMLRCTKGREYIKVVMQNGRMMGAVLIGETDLEETFENLILNQMNLSSYGEDLLDPNIDIEDYFD [R374K]
